Reference: PMC7579878, “Unannotated single nucleotide polymorphisms in the TATA box of erythropoiesis genes show in vitro positive involvements in cognitive and mental disorders”

B1: HBZ rs113180943:A (-29T>A, ODN 4) (dsDNA)
DNA 1: AGCTCCCTGTAAATAAGGGGACCCTG
DNA 2: CAGGGTCCCCTTATTTACAGGGAGCT
B2: EPOR TATA-like WT (ODN 5) (dsDNA)
DNA 1: CACGTCATCTATTTTTGTCTGCTACG
DNA 2: CGTAGCAGACAAAAATAGATGACGTG
B3: EPOR rs567946217:G (-31C>G, ODN 9) (dsDNA)
DNA 1: CACGTCATGTATTTTTGTCTGCTACG
DNA 2: CGTAGCAGACAAAAATACATGACGTG
B4: HBB TATA WT (ODN 1, -32C) (dsDNA)
DNA 1: AGGGCTGGGCATAAAAGTCAGGGCAG
DNA 2: CTGCCCTGACTTTTATGCCCAGCCCT
B5: HBB rs34500389:T (-32C>T, ODN 2) (dsDNA)
DNA 1: AGGGCTGGGTATAAAAGTCAGGGCAG
DNA 2: CTGCCCTGACTTTTATACCCAGCCCT
B6: EPOR rs971717705:G (-29A>G, ODN 7) (dsDNA)
DNA 1: CACGTCATCTGTTTTTGTCTGCTACG
DNA 2: CGTAGCAGACAAAAACAGATGACGTG
B7: HBZ TATA WT (ODN 3) (dsDNA)
DNA 1: AGCTCCCTGTATATAAGGGGACCCTG
DNA 2: CAGGGTCCCCTTATATACAGGGAGCT
B8: EPOR rs1006576690:A (-27T>A, ODN 6) (dsDNA)
DNA 1: CACGTCATCTATATTTGTCTGCTACG
DNA 2: CGTAGCAGACAAATATAGATGACGTG

Target: TATA-binding protein (hTBP) (Homo sapiens, UniProt P20226 1-339)
Sequence (P20226 whole entry): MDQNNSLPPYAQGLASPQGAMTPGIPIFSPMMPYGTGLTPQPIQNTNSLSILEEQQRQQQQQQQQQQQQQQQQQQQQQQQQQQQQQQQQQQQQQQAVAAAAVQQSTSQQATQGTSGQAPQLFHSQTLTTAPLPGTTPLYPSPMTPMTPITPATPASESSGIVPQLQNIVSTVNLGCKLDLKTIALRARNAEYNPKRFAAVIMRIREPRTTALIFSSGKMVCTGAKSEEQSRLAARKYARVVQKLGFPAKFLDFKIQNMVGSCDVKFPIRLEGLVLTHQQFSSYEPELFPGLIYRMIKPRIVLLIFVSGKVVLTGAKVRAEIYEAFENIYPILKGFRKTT
Test: EMSA (kinetic, kd/ka); EMSA with 32P-labelled 26 bp duplexes; binding buffer, salt, pH and temperature not given in the material
Settings: protein: recombinant; label: 32P (both strands); blunt

Binder | Kd
B1 | 40 ± 20 nM
B2 | 170 ± 30 nM
B3 | 80 ± 10 nM
B4 | 50 nM
B5 | 32 ± 3 nM
B6 | 150 ± 30 nM
B7 | 6 nM
B8 | 11 ± 3 nM
